# Tests used:
# huCTLA4 = huCTLA4 (Homo sapiens, UniProt P16410); assay: Flow binding to CHO cells stably expressing CTLA4; design: huCTLA4 and huPD-L1, full-length mammalian surface expression constructs were generated; expressed in transfected cells; host or cells: CHO cells, lentiviral transduction, sorted to >98% purity; settings: for CTLA4 Fold change to WT CD80: MFI ratio to WT CD80 ECD-Fc (R&D) at 33.3 nM
# Summary of the method: (§1)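 Fusion proteins bound to CHO cells stably expressing CTLA4 or PD-L1, or to Jurkat/IL2 reporter cells with endogenous CD28, for 45 min on ice after blocking in PBS/1% BSA. Detection with PE anti-human Fc by flow cytometry; PE MFI per cell type and binding EC50 determined.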
# CD28 [1] = target: T1, CD28 (Homo sapiens, UniProt P10747); assay: Flow binding to Jurkat/IL2 reporter cells (CD28); design: host or cells: Jurkat cells expressing an IL-2-luciferase reporter; settings: for CD28 Fold change to WT CD80: MFI ratio to WT CD80 ECD-Fc (R&D) at 33.3 nM
# Summary of the method: as §1
# CD28 [2] = target: T1, CD28; assay: Jurkat/IL2 + K562/OKT3/PD-L1 reporter assay; type: cell-based; design: host or cells: Jurkat cells expressing an IL-2-luciferase reporter; settings: K562/OKT3/PD-L1 aAPC, 50 nM; for Relative Luciferase Units (RLU), CD80-Fe Cone 50 nM / Fold Increase over WT CD80-IgV-Fe: Table E8
# huPD-L1 = huPD-L1 (Homo sapiens, UniProt Q9NZQ7); assay: Flow binding to CHO cells stably expressing PD-L1; design: huCTLA4 and huPD-L1, full-length mammalian surface expression constructs were generated; expressed in transfected cells; host or cells: CHO cells, lentiviral transduction, sorted to >98% purity; settings: for PD-L1 Fold change to WT CD80: MFI ratio to WT CD80 ECD-Fc (R&D) at 33.3 nM; for Ratio of PDL1:CD28: binding to PD-L1 compared to binding to CD28
# Summary of the method: as §1
# CD28 [3] = target: T1, CD28; assay: Jurkat/IL2 + CHO/OKT3 +/- PD-L1 reporter assay: PD-L1-dependent CD28 costimulation; type: cell-based; design: host or cells: Jurkat cells expressing an IL-2-luciferase reporter; settings: Table E22; Jurkat/IL2 + CHO/OKT3/PD-L1; CD80 Conc 5.0 nM
# Summary of the method: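 Jurkat reporter cells (100,000/well) preincubated 15 min at room temperature with test protein, then cocultured 5 h at 37 °C with CHO aAPCs bearing anti-CD3 scFv (OKT3) with or without PD-L1. Luciferase luminescence (RLU) read after lysis-substrate addition.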
# [4] = Table E4, 33.3 nM variant CD80 IgV-Fc, CHO cells stably expressing CTLA4
# [5] = Table E4, CHO cells stably expressing PD-L1
# Sequence of huPD-L1 (Q9NZQ7 19-290): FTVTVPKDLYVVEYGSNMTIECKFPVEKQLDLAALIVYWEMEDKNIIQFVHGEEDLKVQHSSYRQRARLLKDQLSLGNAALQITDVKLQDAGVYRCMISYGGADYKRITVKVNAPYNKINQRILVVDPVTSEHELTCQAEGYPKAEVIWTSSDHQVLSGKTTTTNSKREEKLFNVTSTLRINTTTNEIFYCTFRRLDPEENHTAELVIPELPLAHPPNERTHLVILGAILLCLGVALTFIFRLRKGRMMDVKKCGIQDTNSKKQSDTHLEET
# Sequence of huCTLA4 (P16410 36-223): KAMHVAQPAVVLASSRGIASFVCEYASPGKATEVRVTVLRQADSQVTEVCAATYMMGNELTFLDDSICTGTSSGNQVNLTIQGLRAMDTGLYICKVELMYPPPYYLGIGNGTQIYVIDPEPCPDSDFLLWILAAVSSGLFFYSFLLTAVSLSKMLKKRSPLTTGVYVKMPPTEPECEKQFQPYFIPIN
Molecule,CTLA4 MFI at 33.3 nM (huCTLA4; [4]),"CD28 MFI at 33.3 nM (CD28 [1]; Table E4, Jurkat cells (CD28))","Relative Luciferase Units (RLU), CD80-Fe Cone 50 nM (CD28 [2]) [RLU]",CTLA4 Fold change to WT CD80 (huCTLA4; Table E4),CD28 Fold change to WT CD80 (CD28 [1]; Table E4),Fold Increase over WT CD80-IgV-Fe (CD28 [2]),PD-L1 MFI at 33.3 nM (huPD-L1; [5]),PD-L1 Fold change to WT CD80 (huPD-L1; Table E4),Ratio of PDL1:CD28 (huPD-L1; Table E4),other results
"V22A/E35D/M47I/Y87N (protein, CD80 v253 ECD) VIHVTKEVKEVATLSCGHNVSAEELAQTRIYWQKDKKMVLTMMSGDINIWPEYKNRTIFDITNNLSIVILALRPSDEGTYECVVLKNEKDAFKREHLAEVTLSVKADFPTPSISDFETPTSNIRRIICSTSGGFPEPHLSWLENGEELNAINTTVSQDPETELYAVSSKLDFNMTTNHSFMCLIKYGHLRVNQTFNWNTTKQEHFPDN",245711,15299,1388,–,–,–,–,–,–,–
"V22L/Q27H/E35D/M47I/A71G (protein, CD80 v274 ECD) VIHVTKEVKEVATLSCGHNVSLEELAHTRIYWQKDKKMVLTMMSGDINIWPEYKNRTIFDITNNLSIVILGLRPSDEGTYECVVLKYEKDAFKREHLAEVTLSVKADFPTPSISDFETPTSNIRRIICSTSGGFPEPHLSWLENGEELNAINTTVSQDPETELYAVSSKLDFNMTTNHSFMCLIKYGHLRVNQTFNWNTTKQEHFPDN",151600,7269,1123,–,–,–,–,–,–,–
"E35D/M47L/L85Q: variant CD80 IgV-Fc, IgV SEQ ID NO:418 (protein) VIHVTKEVKEVATLSCGHNVSVEELAQTRIYWQKDKKMVLTMMSGDLNIWPEYKNRTIFDITNNLSIVILALRPSDEGTYECVVQKYEKDAFKREHLAEVTLSVKAD",–,–,–,–,–,–,–,–,–,"CTLA4 MFI at 33.3 nM (huCTLA4; Table E3, 33.3 nM): 336179; CTLA4 MFI at 33.3 nM (huCTLA4; Table E19, CHO cells stably expressing CTLA4, 33.3 nM): 12909; CD28 MFI at 33.3 nM (CD28 [1]; Table E3): 646; CD28 MFI at 33.3 nM (CD28 [1]; Table E19, Jurkats (CD28)): 46.3; Relative Luciferase Units (RLU), CD80-Fc Conc. 50 nM (CD28 [2]; Table E7): 2852 RLU; PD-L1 MFI at 33.3 nM (huPD-L1; Table E3): 33200; PD-L1 MFI at 33.3 nM (huPD-L1; Table E19, CHO cells stably expressing PD-L1): 6097"
A26E/E35D/M47L/A71G (protein) VIHVTKEVKEVATLSCGHNVSVEELEQTRIYWQKDKKMVLTMMSGDLNIWPEYKNRTIFDITNNLSIVILGLRPSDEGTYECVVLKYEKDAFKREHLAEVTLSVKAD,–,2161,1748,–,–,–,–,–,–,"Relative Luciferase Units (RLU), CD80 Conc 5.0 nM (CD28 [3]): 766 RLU; CD28 MFI at 33.3 nM (CD28 [1]; Table E20, Jurkats (CD28)): 236"
"Q33L/E35D/M47I/N48D/A71G (protein, UniProt P33681 35-288, looked up, variant Q33L E35D M47I N48D A71G) T-lymphocyte activation …: VIHVTKEVKEVATLSCGHNVSVEELAQTRIYWLKDKKMVLTMMSGDIDIWPEYKNRTIFDITNNLSIVILGLRPSDEGTYECVVLKYEKDAFKREHLAEVTLSVKADFPTPSISDFEIPTSNIRRIICSTSGGFPEPHLSWLENGEELNAINTTVSQDPETELYAVSSKLDFNMTTNHSFMCLIKYGHLRVNQTFNWNTTKQEHFPDNLLPSWAITLISVNGIFVICCLTYCFAPRCRERRRNERLRRESVRPV",116798,644,213,0.74,0.04,1.0,31151,2.62,48,–
"E35D/D46E/M47V/N63D/L85Q (protein, UniProt P33681 35-288, looked up, variant E35D D46E M47V N63D L85Q) T-lymphocyte activation …: VIHVTKEVKEVATLSCGHNVSVEELAQTRIYWQKDKKMVLTMMSGEVNIWPEYKNRTIFDITDNLSIVILALRPSDEGTYECVVQKYEKDAFKREHLAEVTLSVKADFPTPSISDFEIPTSNIRRIICSTSGGFPEPHLSWLENGEELNAINTTVSQDPETELYAVSSKLDFNMTTNHSFMCLIKYGHLRVNQTFNWNTTKQEHFPDNLLPSWAITLISVNGIFVICCLTYCFAPRCRERRRNERLRRESVRPV",274320,1331,1381,1.74,0.07,6.7,69780,5.88,52,–
"H18Y/A26E/E35D/M47L/L85Q/D90G (protein, UniProt P33681 35-288, looked up, variant H18Y A26E E35D M47L L85Q D90G) T-lymphocyte activation …: VIHVTKEVKEVATLSCGYNVSVEELEQTRIYWQKDKKMVLTMMSGDLNIWPEYKNRTIFDITNNLSIVILALRPSDEGTYECVVQKYEKGAFKREHLAEVTLSVKADFPTPSISDFEIPTSNIRRIICSTSGGFPEPHLSWLENGEELNAINTTVSQDPETELYAVSSKLDFNMTTNHSFMCLIKYGHLRVNQTFNWNTTKQEHFPDNLLPSWAITLISVNGIFVICCLTYCFAPRCRERRRNERLRRESVRPV",230588,3540,1506,–,–,–,–,–,–,–
"R29H/E35D/M43V/M47I/I49V (protein, UniProt P33681 35-288, looked up, variant R29H E35D M43V M47I I49V) T-lymphocyte activation …: VIHVTKEVKEVATLSCGHNVSVEELAQTHIYWQKDKKMVLTMVSGDINVWPEYKNRTIFDITNNLSIVILALRPSDEGTYECVVLKYEKDAFKREHLAEVTLSVKADFPTPSISDFEIPTSNIRRIICSTSGGFPEPHLSWLENGEELNAINTTVSQDPETELYAVSSKLDFNMTTNHSFMCLIKYGHLRVNQTFNWNTTKQEHFPDNLLPSWAITLISVNGIFVICCLTYCFAPRCRERRRNERLRRESVRPV",4694,336,227,0.03,0.02,1.1,1590,0.13,5,–
"E35D/M47I/L85Q/D90G (protein, UniProt P33681 35-288, looked up, variant E35D M47I L85Q D90G) T-lymphocyte activation …: VIHVTKEVKEVATLSCGHNVSVEELAQTRIYWQKDKKMVLTMMSGDINIWPEYKNRTIFDITNNLSIVILALRPSDEGTYECVVQKYEKGAFKREHLAEVTLSVKADFPTPSISDFEIPTSNIRRIICSTSGGFPEPHLSWLENGEELNAINTTVSQDPETELYAVSSKLDFNMTTNHSFMCLIKYGHLRVNQTFNWNTTKQEHFPDNLLPSWAITLISVNGIFVICCLTYCFAPRCRERRRNERLRRESVRPV",247703,4095,1438,1.57,0.23,7.0,35710,3.01,9,–
"E35D/T41S/M43V/M47I/L70M/A71G (protein, UniProt P33681 35-288, looked up, variant E35D T41S M43V M47I L70M A71G, Fc fusion) T-lymphocyte activation …: VIHVTKEVKEVATLSCGHNVSVEELAQTRIYWQKDKKMVLSMVSGDINIWPEYKNRTIFDITNNLSIVIMGLRPSDEGTYECVVLKYEKDAFKREHLAEVTLSVKADFPTPSISDFEIPTSNIRRIICSTSGGFPEPHLSWLENGEELNAINTTVSQDPETELYAVSSKLDFNMTTNHSFMCLIKYGHLRVNQTFNWNTTKQEHFPDNLLPSWAITLISVNGIFVICCLTYCFAPRCRERRRNERLRRESVRPV",249456,2698,1672,1.59,0.15,8.1,12978,1.09,5,–
"E35D/M47V/A71G (protein, UniProt P33681 35-288, looked up, variant E35D M47V A71G) T-lymphocyte activation …: VIHVTKEVKEVATLSCGHNVSVEELAQTRIYWQKDKKMVLTMMSGDVNIWPEYKNRTIFDITNNLSIVILGLRPSDEGTYECVVLKYEKDAFKREHLAEVTLSVKADFPTPSISDFEIPTSNIRRIICSTSGGFPEPHLSWLENGEELNAINTTVSQDPETELYAVSSKLDFNMTTNHSFMCLIKYGHLRVNQTFNWNTTKQEHFPDNLLPSWAITLISVNGIFVICCLTYCFAPRCRERRRNERLRRESVRPV",–,6360,1190,–,–,–,36216,–,–,–
